In IntAct's records for PubMed 17540176:

B1: Serine/threonine-protein phosphatase 2A 65 kDa regulatory subunit A beta isoform (Homo sapiens), P30154 (parent)
chain: MAGASELGTGPGAAGGDGDDSLYPIAVLIDELRNEDVQLRLNSIKKLSTIALALGVERTRSELLPFLTDTIYDEDEVLLALAEQLGNFTGLVGGPDFAHCLLPPLENLATVEETVVRDKAVESLRQISQEHTPVALEAYFVPLVKRLASGDWFTSRTSACGLFSVCYPRASNAVKAEIRQQFRSLCSDDTPMVRRAAASKLGEFAKVLELDSVKSEIVPLFTSLASDEQDSVRLLAVEACVSIAQLLSQDDLETLVMPTLRQAAEDKSWRVRYMVADRFSELQKAMGPKITLNDLIPAFQNLLKDCEAEVRAAAAHKVKELGENLPIEDRETIIMNQILPYIKELVSDTNQHVKSALASVIMGLSTILGKENTIEHLLPLFLAQLKDECPDVRLNIISNLDCVNEVIGIRQLSQSLLPAIVELAEDAKWRVRLAIIEYMPLLAGQLGVEFFDEKLNSLCMAWLVDHVYAIREAATNNLMKLVQKFGTEWAQNTIVPKVLVMANDPNYLHRMTTLFCINALSEACGQEITTKQMLPIVLKMAGDQVANVRFNVAKSLQKIGPILDTNALQGEVKPVLQKLGQDEDMDVKYFAQEAISVLALA
partner: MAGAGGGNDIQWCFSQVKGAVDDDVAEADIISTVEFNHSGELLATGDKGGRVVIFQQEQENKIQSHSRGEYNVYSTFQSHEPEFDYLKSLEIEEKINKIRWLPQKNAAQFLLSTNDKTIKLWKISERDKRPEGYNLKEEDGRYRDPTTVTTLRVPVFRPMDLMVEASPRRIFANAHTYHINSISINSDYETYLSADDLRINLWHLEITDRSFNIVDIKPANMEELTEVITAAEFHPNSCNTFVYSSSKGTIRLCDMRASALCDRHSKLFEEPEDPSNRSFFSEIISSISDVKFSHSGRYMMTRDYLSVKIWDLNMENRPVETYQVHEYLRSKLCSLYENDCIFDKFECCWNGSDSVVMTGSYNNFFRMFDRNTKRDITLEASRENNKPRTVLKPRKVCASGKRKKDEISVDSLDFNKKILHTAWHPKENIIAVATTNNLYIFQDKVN
B2: Serine/threonine-protein phosphatase 2A 65 kDa regulatory subunit A beta isoform (Homo sapiens), P30154 (parent)
chain: B1 chain
partner: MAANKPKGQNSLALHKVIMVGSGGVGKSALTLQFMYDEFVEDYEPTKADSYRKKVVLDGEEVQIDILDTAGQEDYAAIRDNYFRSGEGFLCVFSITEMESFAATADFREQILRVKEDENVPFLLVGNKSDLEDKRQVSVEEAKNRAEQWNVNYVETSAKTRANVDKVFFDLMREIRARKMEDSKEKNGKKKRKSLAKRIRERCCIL
B3: Ras-related protein Ral-A (Homo sapiens), P11233 (parent)
chain: B2 partner
B4: Serine/threonine-protein phosphatase 2A 65 kDa regulatory subunit A beta isoform (Homo sapiens), P30154 (parent)
chain: B1 chain

Variants of: B1
Conditions: with 2aba_human PPP2R2A

effect of a mutation on the interaction | Variant
decreasing interaction | L101P;V448A

Variants of: B2
Conditions: with rala_human RALA

effect of a mutation on the interaction | Variant
decreasing interaction | G8R
decreasing interaction | V545A
decreasing interaction | V448A

Variants of: B3
Conditions: with 2aab_human PPP2R1B

effect of a mutation on the interaction | Variant
decreasing interaction | S194A
decreasing interaction | S183A

Variants of: B4
Conditions: with 2a5g_human PPP2R5C

effect of a mutation on the interaction | Variant
decreasing interaction | V545A
decreasing interaction | V448A
decreasing interaction | L101P
decreasing interaction | K343E
decreasing interaction | D504G
decreasing interaction | L101P;V448A

Variants of: B4
Conditions: with 2a5d_human PPP2R5D

effect of a mutation on the interaction | Variant
decreasing interaction | V545A
decreasing interaction | V448A
decreasing interaction | L101P
decreasing interaction | L101P;V448A

Variants of: B4
Conditions: with pp2aa_human PPP2CA

effect of a mutation on the interaction | Variant
decreasing interaction | V448A
decreasing interaction | L101P
decreasing interaction | L101P;V448A

Variants of: B4
Conditions: with 2a5a_human PPP2R5A

effect of a mutation on the interaction | Variant
decreasing interaction | V448A
decreasing interaction | L101P
decreasing interaction | L101P;V448A
